Results on 1 substance are retold here after article PMC3832543.

This experiment has as its target MCL-1ES, wild type (amino acids 1-197), Flag-tagged (human). Put plainly: cross-linking; 293T cells; heavy membrane fraction cross-linked with glutaraldehyde, western blot; increasing MCL-1ES expression; also with MCL-1L over-expressed or knocked down.

Values joined by “and” are separate entries in the source; they are usually repeats but may differ in a detail not shown here. Equal entries are not always repeated.

As for “MCL-1ES, wild type (amino acids 1-197), Flag-tagged (natural protein)”, the stoichiometry N is 2 and 3.

One may read the stoichiometry N as the number of molecules, sites or subunits per partner or assembly.
